Assay results taken from patent US20240174727A1, “LONG-ACTING NATRIURETIC PEPTIDES AND USES THEREOF” (Eli Lilly and Company, priority 2022, published 2024).
Changes are numbered by the printed parent chain. Numbered stars: 1 amine (or outer) side, 2 acyl side, 3 side chain; on linkers, the order of the positions; unused ones are H or OH. Bridge positions count the residues as written; N and C are the ends. Square brackets hold non-standard residues; d marks the D form. * marks the point of attachment. thioacetal = thioacetal linkage between two cysteines (intrachain bond at the bracketed Cys); C20 diacid = O=C(O)CCCCCCCCCCCCCCCCCCC(=O)*; γGlu = O=C(O)[C@H](CCC(=O)[*:2])N[*:1]; Orn = NCCC[C@H](N)C(=O)O; Dap = NC[C@H](N)C(=O)O; βAla = NCCC(=O)O

T1: human NPRA (human, UniProt P16066 33-1061)
T1 sequence (looked up): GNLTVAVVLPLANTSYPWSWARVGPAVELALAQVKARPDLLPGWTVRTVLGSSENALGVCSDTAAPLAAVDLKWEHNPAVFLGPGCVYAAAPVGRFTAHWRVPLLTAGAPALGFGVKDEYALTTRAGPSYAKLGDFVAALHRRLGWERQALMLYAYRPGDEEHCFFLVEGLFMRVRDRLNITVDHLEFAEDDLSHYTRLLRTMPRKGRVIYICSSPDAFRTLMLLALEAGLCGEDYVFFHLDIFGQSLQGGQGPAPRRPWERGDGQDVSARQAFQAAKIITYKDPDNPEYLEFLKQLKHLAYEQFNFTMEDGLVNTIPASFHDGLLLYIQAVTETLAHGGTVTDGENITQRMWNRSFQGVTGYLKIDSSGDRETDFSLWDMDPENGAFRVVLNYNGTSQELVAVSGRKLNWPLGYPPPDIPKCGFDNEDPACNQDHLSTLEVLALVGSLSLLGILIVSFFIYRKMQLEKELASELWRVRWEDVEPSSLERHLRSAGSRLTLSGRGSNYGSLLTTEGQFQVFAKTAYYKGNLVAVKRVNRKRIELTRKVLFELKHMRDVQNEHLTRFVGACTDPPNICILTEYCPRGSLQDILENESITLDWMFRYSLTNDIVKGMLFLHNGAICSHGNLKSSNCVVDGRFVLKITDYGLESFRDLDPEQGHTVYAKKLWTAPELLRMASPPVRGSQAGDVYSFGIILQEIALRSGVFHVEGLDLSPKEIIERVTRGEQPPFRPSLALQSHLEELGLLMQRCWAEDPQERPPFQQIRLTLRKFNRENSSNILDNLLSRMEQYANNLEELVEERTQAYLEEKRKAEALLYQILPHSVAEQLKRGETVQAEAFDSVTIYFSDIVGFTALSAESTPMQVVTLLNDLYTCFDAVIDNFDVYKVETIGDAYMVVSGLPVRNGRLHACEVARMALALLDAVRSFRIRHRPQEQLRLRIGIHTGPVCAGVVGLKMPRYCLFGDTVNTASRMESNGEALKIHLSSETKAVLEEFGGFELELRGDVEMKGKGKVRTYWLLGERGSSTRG

T2: rat NPRA (rat, UniProt P18910 29-1057)
T2 sequence (looked up): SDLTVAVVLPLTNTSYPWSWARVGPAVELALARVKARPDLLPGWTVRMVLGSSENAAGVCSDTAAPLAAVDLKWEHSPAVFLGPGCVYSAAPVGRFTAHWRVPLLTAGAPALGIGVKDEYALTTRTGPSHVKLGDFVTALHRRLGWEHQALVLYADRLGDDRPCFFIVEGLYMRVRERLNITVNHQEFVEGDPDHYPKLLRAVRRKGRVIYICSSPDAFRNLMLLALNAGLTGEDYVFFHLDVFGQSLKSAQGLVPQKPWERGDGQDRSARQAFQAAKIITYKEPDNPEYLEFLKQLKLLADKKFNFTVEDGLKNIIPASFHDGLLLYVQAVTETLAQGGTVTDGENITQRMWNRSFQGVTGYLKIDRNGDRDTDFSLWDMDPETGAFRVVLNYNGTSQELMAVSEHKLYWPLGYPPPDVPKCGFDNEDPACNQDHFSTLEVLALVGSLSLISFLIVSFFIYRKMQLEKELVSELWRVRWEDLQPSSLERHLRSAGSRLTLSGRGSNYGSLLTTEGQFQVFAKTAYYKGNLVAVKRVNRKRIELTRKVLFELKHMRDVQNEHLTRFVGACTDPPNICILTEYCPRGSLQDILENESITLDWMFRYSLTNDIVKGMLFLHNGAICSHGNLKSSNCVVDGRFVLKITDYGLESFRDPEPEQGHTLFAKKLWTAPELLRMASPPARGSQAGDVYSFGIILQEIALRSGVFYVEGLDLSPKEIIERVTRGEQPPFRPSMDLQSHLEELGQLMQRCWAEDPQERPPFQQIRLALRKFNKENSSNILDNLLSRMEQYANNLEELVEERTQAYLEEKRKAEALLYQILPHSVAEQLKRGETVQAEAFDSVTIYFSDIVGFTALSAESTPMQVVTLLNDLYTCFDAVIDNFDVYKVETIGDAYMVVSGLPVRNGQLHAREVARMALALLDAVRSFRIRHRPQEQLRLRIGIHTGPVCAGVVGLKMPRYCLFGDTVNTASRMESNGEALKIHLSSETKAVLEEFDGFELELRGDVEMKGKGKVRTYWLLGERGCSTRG

B1: HOOC-(CH2)18-CO-(γGlu)-EKEKEKGEKPRSS[CFGKRIDRIGHQSGLGC]PSFRHGSGSPSSGAPPPSG-NH2 (peptide)
peptide: {C20 diacid-γGlu}-EKEKEKGEKPRSSCFGKRIDRIGHQSGLGCPSFRHGSGSPSSGAPPPSG-NH2
modifications: bridge 14-30 via thioacetal
B2: HOOC-(CH2)18-CO-(γGlu)-EKEKEKG-PEG24-S-4Pal-RRSS[CFGKRIDRIGHYSGLGC]PSFRHGSPSSGAPPPS-NH2 (peptide)
peptide: SXRRSSCFGKRIDRIGHYSGLGCPSFRHGSPSSGAPPPS
modifications: N-terminus acylated with HOOC-(CH2)18-CO-(γGlu)-; PEG24 after EKEKEKG; 4Pal; thioacetal linkage between the two bracketed Cys; C-terminal amide
B3: HOOC-(CH2)18-CO-(γGlu)-EKEKEKG-PEG24-EKPRSS[CFGKRIDRIGHYSGLGC]PSFRHGSPSSGAPPPS-NH2 (peptide)
peptide: B2 peptide with S1E, X2K, R3P
modifications: N-terminus acylated with HOOC-(CH2)18-CO-(γGlu)-; PEG24 after EKEKEKG; thioacetal linkage between the two bracketed Cys; C-terminal amide
B4: HOOC-(CH2)18-CO-(γGlu)-EKEKEKG-(AEEA)6-EKPRSS[CFGKRIDRIGHYSGLGC]PSFRHGSPSSGAPPPS-NH2 (peptide)
peptide: B2 peptide with S1E, X2K, R3P
modifications: N-terminus acylated with HOOC-(CH2)18-CO-(γGlu)-; (AEEA)6 after EKEKEKG; thioacetal linkage between the two bracketed Cys; C-terminal amide
B5: HOOC-(CH2)18-CO-(γGlu)-EKEKEKG-(AEEA)6-EK-βAla-RSS[CFGKRIDRIGHQSGLGC]PSFRHGSPSSGAPPPS-NH2 (peptide)
peptide: B2 peptide with S1E, X2K, R3X, Y18Q
modifications: N-terminus acylated with HOOC-(CH2)18-CO-(γGlu)-; (AEEA)6 after EKEKEKG; βAla; thioacetal linkage between the two bracketed Cys; C-terminal amide
B6: HOOC-(CH2)18-CO-(γGlu)-EKEKEKG-(AEEA)8-EKPRSS[CFGKRIDRIGHYSGLGC]PSFRHGSPSSGAPPPS-NH2 (peptide)
peptide: B2 peptide with S1E, X2K, R3P
modifications: N-terminus acylated with HOOC-(CH2)18-CO-(γGlu)-; (AEEA)8 after EKEKEKG; thioacetal linkage between the two bracketed Cys; C-terminal amide
B7: HOOC-(CH2)18-CO-(γGlu)-EKEKEKG-(AEEA)8-EK-βAla-RSS[CFGKRIDRIGHQSGLGC]PSFRHGSPSSGAPPPS-NH2 (peptide)
peptide: B2 peptide with S1E, X2K, R3X, Y18Q
modifications: N-terminus acylated with HOOC-(CH2)18-CO-(γGlu)-; (AEEA)8 after EKEKEKG; βAla; thioacetal linkage between the two bracketed Cys; C-terminal amide
B8: HOOC-(CH2)18-CO-(γGlu)-EKEKEKGEK-βAla-RSS[CFGKRIDRIGHYSGLGC]PSFRHGSPSSGAPPPS-NH2 (peptide)
peptide: {C20 diacid}-[γGlu]EKEKEKGEK[βAla]RSSCFGKRIDRIGHYSGLGCPSFRHGSPSSGAPPPS-NH2
modifications: bridge 15-31 via thioacetal
B9: HOOC-(CH2)18-CO-(γGlu)-EKEKEKGEKPRSS[CFGKRIDRIGHQSGLGC]PSFRHGSPSSGAPPPS-NH2 (peptide)
peptide: {C20 diacid-γGlu}-EKEKEKGEKPRSSCFGKRIDRIGHQSGLGCPSFRHGSPSSGAPPPS-NH2
modifications: bridge 14-30 via thioacetal
B10: HOOC-(CH2)18-CO-(γGlu)-EKEKEKGEKPRSS[CFGKRIDRIGRYSGLGC]PSFRHGSPSSGAPPPS-NH2 (peptide)
peptide: {C20 diacid-γGlu}-EKEKEKGEKPRSSCFGKRIDRIGRYSGLGCPSFRHGSPSSGAPPPS-NH2
modifications: bridge 14-30 via thioacetal
B11: HOOC-(CH2)18-CO-(γGlu)-EKEKEKGEKPRSS[CFGKRIDRIG-Orn-YSGLGC]PSFRHGSPSSGAPPPS-NH2 (peptide)
peptide: {C20 diacid-γGlu}-EKEKEKGEKPRSSCFGKRIDRIG[Orn]YSGLGCPSFRHGSPSSGAPPPS-NH2
modifications: bridge 14-30 via thioacetal
B12: HOOC-(CH2)18-CO-(γGlu)-EKEKEKG-(AEEA)6-EKPRSS[CFGKRIDRIGHYSGLGC]PSFRHSGSPSSGAPPPSG-NH2 (peptide)
peptide: EKPRSSCFGKRIDRIGHYSGLGCPSFRHSGSPSSGAPPPSG
modifications: N-terminus acylated with HOOC-(CH2)18-CO-(γGlu)-; (AEEA)6 after EKEKEKG; thioacetal linkage between the two bracketed Cys; C-terminal amide
B13: HOOC-(CH2)18-CO-(γGlu)-EKEKEKG-PEG24-EKPRSS[CFGKRIDRIGHQSGLGC]PSFRHSGSPSSGAPPPSG-NH2 (peptide)
peptide: B12 peptide with Y18Q
modifications: N-terminus acylated with HOOC-(CH2)18-CO-(γGlu)-; PEG24 after EKEKEKG; thioacetal linkage between the two bracketed Cys; C-terminal amide
B14: HOOC-(CH2)18-CO-(γGlu)-EKEKEKG-PEG24-EKPRSS[CFGKRIDRIGHYSGLGC]PSFRHSGSPSSGAPPPSG-NH2 (peptide)
peptide: B12 peptide
modifications: N-terminus acylated with HOOC-(CH2)18-CO-(γGlu)-; PEG24 after EKEKEKG; thioacetal linkage between the two bracketed Cys; C-terminal amide
B15: HOOC-(CH2)18-CO-(γGlu)-EKEKEKG-PEG24-EKPRSS[CFGKGIDRIGHQSGLGC]PSFRHSGSPSSGAPPPSG-NH2 (peptide)
peptide: B12 peptide with R11G, Y18Q
modifications: N-terminus acylated with HOOC-(CH2)18-CO-(γGlu)-; PEG24 after EKEKEKG; thioacetal linkage between the two bracketed Cys; C-terminal amide
B16: HOOC-(CH2)18-CO-(γGlu)-EKEKEKG-(AEEA)8-EKPRSS[CFGKRIDRIGHYSGLGC]PSFRHSGSPSSGAPPPSG-NH2 (peptide)
peptide: B12 peptide
modifications: N-terminus acylated with HOOC-(CH2)18-CO-(γGlu)-; (AEEA)8 after EKEKEKG; thioacetal linkage between the two bracketed Cys; C-terminal amide
B17: HOOC-(CH2)18-CO-(γGlu)-EKEKEKG-(AEEA)6-S-4Pal-RRSS[CFGKRIDRIGHYSGLGC]PSFRHGSGSPSSGAPPPSG-NH2 (peptide)
peptide: SXRRSSCFGKRIDRIGHYSGLGCPSFRHGSGSPSSGAPPPSG
modifications: N-terminus acylated with HOOC-(CH2)18-CO-(γGlu)-; (AEEA)6 after EKEKEKG; 4Pal; thioacetal linkage between the two bracketed Cys; C-terminal amide
B18: HOOC-(CH2)18-CO-(γGlu)-EKEKEKGEKPRSS[CFGG-Dap-IDRIGHQSGLGC]PSFRHGSPSSGAPPPS-NH2 (peptide)
peptide: {C20 diacid-γGlu}-EKEKEKGEKPRSSCFGG[Dap]IDRIGHQSGLGCPSFRHGSPSSGAPPPS-NH2
modifications: bridge 14-30 via thioacetal
B19: HOOC-(CH2)18-CO-(γGlu)-EKEKEKGEKPRSS[CFGG-Dap-IDRIGHYSGLGC]PSFRHGSPSSGAPPPS-NH2 (peptide)
peptide: {C20 diacid-γGlu}-EKEKEKGEKPRSSCFGG[Dap]IDRIGHYSGLGCPSFRHGSPSSGAPPPS-NH2
modifications: bridge 14-30 via thioacetal

biological target: T1, human NPRA; experiment: cell-based or functional assay

Binder	cGMP Assay (EC50, pM) w/BSA, hNPRA [pM]	cGMP Assay (EC50, pM) w/Casein, hNPRA [pM]
B1	37600	392
B2	2830	726
B3	5170	736
B4	6380	490
B5	12800	493
B6	9550	902
B7	10000	542
B8	23700	566
B9	41500	703
B10	11700	692
B11	104000	497
B12	8970	745
B13	5300	704
B14	3980	656
B15	302000	38700
B16	6370	1090
B17	9170	922
B18	2.87e+06	19700
B19	1.41e+06	5350

biological target: T2, rat NPRA; experiment: cell-based or functional assay

Binder	cGMP Assay (EC50, pM) w/BSA, rNPRA [pM]	cGMP Assay (EC50, pM) w/Casein, rNPRA [pM]
B1	816000	2160
B2	100000	5650
B3	80200	4850
B4	150000	3770
B5	623000	17900
B6	147000	3990
B7	696000	25400
B8	498000	2010
B9	341000	2020
B10	4.18e+06	41100
B11	6.52e+06	186000
B12	205000	3830
B13	260000	9390
B14	74300	4510
B15	1.45e+06	580000
B16	88500	3760
B17	200000	6040
B18	1.73e+06	200000
B19	3.8e+06	71700
